Assay results published in patent publication US20170204187A1, “METHODS OF TREATING AND PREVENTING CANCER DRUG RESISTANCE” (Genentech, Inc., priority 2014, published 2017).

Tested on: LOX-IMVI cells
Assay: Secreted factor rescue screen on LOX-IMVI (FIG. 23)
Format: cell-based
Text: FIG. 23 A-C.|Vemurafenib resistant and sensitive cell lines can be used to determine and anticipate paths to resistance in patients. LOX-IMVI cells were rescued by FGF1, FGF2, EGF, and HGF in the screen. A, LOX-IMVI VemR cells were re-sensitized to PLX4032 by FGFR inhibition. B, Dual resistant LOX-IMVI VemR/FGFRi (i.e., resistant to vemurafenib and FGFR inhibitor) cells were re-sensitized to PLX4032 by EGFR inhibition. C, Triple resistant LOX-IMVI VemR/FGFRi/Erlotinib cells were re-sensitized to PLX4032 by MET inhibition.

B1: EGF: secreted factor (protein, UniProt P01133 23-1207, looked up)
Pro-epidermal growth factor: PQHWSCPEGTLAGNGNSTCVGPAPFLIFSHGNSIFRIDTEGTNYEQLVVDAGVSVIMDFHYNEKRIYWVDLERQLLQRVFLNGSRQERVCNIEKNVSGMAINWINEEVIWSNQQEGIITVTDMKGNNSHILLSALKYPANVAVDPVERFIFWSSEVAGSLYRADLDGVGVKALLETSEKITAVSLDVLDKRLFWIQYNREGSNSLICSCDYDGGSVHISKHPTQHNLFAMSLFGDRIFYSTWKMKTIWIANKHTGKDMVRINLHSSFVPLGELKVVHPLAQPKAEDDTWEPEQKLCKLRKGNCSSTVCGQDLQSHLCMCAEGYALSRDRKYCEDVNECAFWNHGCTLGCKNTPGSYYCTCPVGFVLLPDGKRCHQLVSCPRNVSECSHDCVLTSEGPLCFCPEGSVLERDGKTCSGCSSPDNGGCSQLCVPLSPVSWECDCFPGYDLQLDEKSCAASGPQPFLLFANSQDIRHMHFDGTDYGTLLSQQMGMVYALDHDPVENKIYFAHTALKWIERANMDGSQRERLIEEGVDVPEGLAVDWIGRRFYWTDRGKSLIGRSDLNGKRSKIITKENISQPRGIAVHPMAKRLFWTDTGINPRIESSSLQGLGRLVIASSDLIWPSGITIDFLTDKLYWCDAKQSVIEMANLDGSKRRRLTQNDVGHPFAVAVFEDYVWFSDWAMPSVMRVNKRTGKDRVRLQGSMLKPSSLVVVHPLAKPGADPCLYQNGGCEHICKKRLGTAWCSCREGFMKASDGKTCLALDGHQLLAGGEVDLKNQVTPLDILSKTRVSEDNITESQHMLVAEIMVSDQDDCAPVGCSMYARCISEGEDATCQCLKGFAGDGKLCSDIDECEMGVPVCPPASSKCINTEGGYVCRCSEGYQGDGIHCLDIDECQLGEHSCGENASCTNTEGGYTCMCAGRLSEPGLICPDSTPPPHLREDDHHYSVRNSDSECPLSHDGYCLHDGVCMYIEALDKYACNCVVGYIGERCQYRDLKWWELRHAGHGQQQKVIVVAVCVVVLVMLLLLSLWGAHYYRTQKLLSKNPKNPYEESSRDVRSRRPADTEDGMSSCPQPWFVVIKEHQDLKNGGQPVAGEDGQAADGSMQPTSWRQEPQLCGMGTEQGCWIPVSSDKGSCPQVMERSFHMPSYGTQTLEGGVEKPHSLLSANPLWQQRALDPPHQMELTQ
modifications: Pro-epidermal growth factor
B1 was tested. Which “rescue in the secreted factor screen” value did it give?
Its value is “rescued”.
